The text below walks through data of patent US20220064275A1 (SCHOLAR ROCK, published 2022).

Assay [1] has as its target T1, human LTBP3-proTGFβ1 complex (human, UniProt Q9NS15 866-1039).
T1 construct: range 866-1039; also called hLTBP3-proTGFβ1; hLTBP3
Kind of assay: MSD-SET, solution equilibrium titration. The procedure:
(§1) MSD-SET assays were performed to measure affinities of the antibodies at equilibrium. Briefly, each test antibody was diluted 3-5 fold and samples were mixed with biotinylated antigen in a 48-well dish. The SET samples were equilibrated for 20-24 hours at room temperature. Meanwhile, a capture plate was coated with IgG (20 nM) and incubated overnight at 4° C. or 30 minutes at room temperature, followed by a blocking step with 5% BSA. After the capture plate was washed three times, SET samples were added and incubated for 150 seconds. The plate was washed once to remove unbound complexes. 250 ng/ml SA-Sulfotag was added then washed 3 times. 2× Read Buffer was added, and signals from the labeled bound complexes were read with the use of QuickPlex™ SQ 120 instrument.

Assay [2] addresses T2, human GARP-proTGFβ1 complex (human, UniProt Q14392 20-627; P01137 30-390).
T2 construct: also called hGARP-proTGFβ1; hGARP
Kind of assay: MSD-SET, solution equilibrium titration. How it is done: as §1

The target in assay [3] is T3, human LRRC33-proTGFβ1 complex (human, UniProt Q86YC3 19-650; P01137 30-390).
T3 construct: also called hLRRC33-proTGFβ1; hLRRC33
Kind of assay: MSD-SET, solution equilibrium titration. The procedure:
as §1

The target of assay [4] is T4, human LTBP1-proTGFβ1 complex (human, UniProt Q14766 873-1507).
T4 construct: range 873-1507; biotinylated in Octet and MSD-SET; also called hLTBP1-proTGFβ1; hLTBP1
Put plainly: MSD-SET, solution equilibrium titration. How it is done: as §1

The target in assay [5] is T5, murine GARP-proTGFβ1 complex (mouse, UniProt G3XA59 18-628; P04202 30-390).
T5 construct: Soluble murine complex; also called mGARP-proTGFβ1
Kind of assay: BLI screen of human and murine LLCs.

Assay [6] addresses hGARP-proTGFβ1 complex on cells (human, UniProt Q14392 20-662; P01137 30-390). Kind of assay: cell-based or functional assay.
Assay [7] deals with hLRRC33-proTGFβ1 complex on cells (human, UniProt Q86YC3 19-692; P01137 30-390). Kind of assay: cell-based or functional assay.
Assay [8] has as its target hLTBP1-proTGFβ1 complex made by transfected cells (cell-based potency assay) (human, UniProt Q14766 347-1721; P01137 30-390). Kind of assay: cell-based or functional assay.
Assay [9] deals with hLTBP3-proTGFβ1 complex made by transfected cells (cell-based potency assay) (human, UniProt Q9NS15 44-1303; P01137 30-390). Kind of assay: cell-based or functional assay.
Assay [10] concerns the target T6, human proTGFβ1 C4S (human, UniProt P01137 30-390).
T6 construct: Small latent complex without presenting molecule; the cysteine that links to presenting molecules is changed to serine; also called small latent complex proTGFβ1 C4S; latent TGFβ1
Kind of assay: HDX-MS.
Description: In the non-deuterated experiments, each sample was mixed with sample buffer (1:15, v/v) at room temperature, then mixed with 1:1 (v/v) quenching buffer (100 mM sodium phosphate, 4 M guanidine HCl, 0.5 M TCEP) at 0° C. Quenched samples were immediately injected into a nanoACQUITY UPLC™ system with HDX technology (Waters Corp., Milford, Mass., USA) for on-column pepsin digestion. The eluent was directed into a SYNAPT® G2 HDMS mass spectrometer (Waters Corp., Milford, Mass., USA) for analysis in MSE mode. For H/D exchange experiments, each sample was mixed with labeling buffer (20 mM HEPES, 150 mM NaCl in deuterium oxide, pD 7.5) (1:15, v/v) to start the labeling reactions at 25° C. Five aliquots of each sample were labeled at various time intervals: 10 s, 1 min, 10 min, 1 h, and 2 h. At the end of each labeling time point, the reaction was quenched by adding 1:1 (v/v) quenching buffer, and the quenched samples were injected into the Waters H/DX-MS system for analysis. Between each sample run, a clean blank was run by injecting pepsin wash buffer (1.5 M guanidine HCl, 4% acetonitrile, 0.8% formic acid) into the H/DX-MS system.
In HDX-MS, the regions of an antigen that are tightly bound by an antibody are protected from proton exchange, due to protein-protein interaction, while regions that are exposed to solvent can readily undergo proton exchange. […]

The target of assay [11] is T6, human proTGFβ1 C4S. Put plainly: BLI (Octet Red384), proTGFβ1 C4S coupled to AR2G sensors, dissociation at pH 5; dissociation at pH 5. The procedure:
(§2) The antibodies were tested against sensor-immobilized human proTGFβ1 C4S, which contains a mutation in the prodomain to facilitate proTGFβ1 expression without disulfide linkage to a presentation molecule. Polystyrene 96-well black half area plates (Greiner Bio-One) and amine reactive second-generation (AR2G) biosensors (FortéBio) were utilized for this experiment.
(§3) AR2G biosensors were first allowed to hydrate in water offline for at least 10 minutes before the initiation of the experiment. Upon initiation of the experiment, AR2G tips were equilibrated in water for 1 minute. Then, the tips were moved into an activation solution for 5 minutes. The activation solution consists of 18 parts water, 1 part 400 mM EDC (1-Ethyl-3-[3-dimethylaminopropyl] carbodiimide hydrochloride), and 1 part 200 mM s-NHS (N-hydroxysulfosuccinimide). The activation solution is prepared immediately before use in the experiment. After tip activation, the tips were loaded for 3 minutes with a 10 ug/mL solution of human proTGFβ1 C4S in 10 mM sodium acetate buffer pH 5. After loading, the tips were quenched in ethanolamine pH 8.5 for 15 minutes. The tips were then baseline/blocked with a 20 minute incubation in 1× enhanced kinetics buffer.
In general terms: BLI is a label-free optical method that tracks binding on a fibre tip over time.

Assay [12] deals with T6, human proTGFβ1 C4S. Put plainly: BLI (Octet Red384), proTGFβ1 C4S coupled to AR2G sensors, dissociation at pH 7; dissociation at pH 7. How it is done:
as §2, §3

In assay [13] the target is T1, human LTBP3-proTGFβ1 complex. Kind of assay: BLI (Octet).
In assay [14] the target is T2, human GARP-proTGFβ1 complex. Put plainly: BLI (Octet).
The target in assay [15] is T3, human LRRC33-proTGFβ1 complex. Put plainly: BLI (Octet).
The target of assay [16] is T4, human LTBP1-proTGFβ1 complex. Put plainly: BLI (Octet).
Assay [17] has as its target T7, human proTGFβ1 C4S/R249A (human, UniProt P01137 30-390).
T7 construct: Expressed with kifunensine and treated with endoglycosidase H; also called uncleavable human proTGFβ1 variant
Put plainly: X-ray crystal structure of the ternary complex.
Excerpt: In this work, an uncleavable human proTGFβ1 C4S/R249A variant was used that spans residues 30-390 based on the full-length sequence of human proTGFβ1 (Uniprot ID P01137). The numbering system that will be used for the rest of this document will designate position 1 as the first amino acid residue after the removal of the signal sequence for proTGFβ isoforms. The C4S mutation renders proTGFβ1 not capable of covalent crosslinking to any known presenting molecules, e.g. LTBPs and GARP, while the R249A renders proTGFβ1 resistant to proprotein convertase/furin protease cleavage, thus maintaining proTGFβ1 in its uncleaved, proprotein form. […] The AbX Fab in this context was used as an auxiliary protein, which acts as a crystallization chaperone to increase the probability of obtaining protein crystals.
Crystallization experiments were performed at room temperature in a sitting drop format. […] X-ray diffraction data were collected at the SER-CAT beamline 22-ID at the Advanced Photon Source (APS) at the Argonne National Laboratory (ANL) using a Dectris Eiger 16M detector. The diffraction images were processed with X-ray Detector Software (XDS) in space group C2221 with an asymmetric unit containing one half of a 2:2:2 complex. The structure of the ternary complex was solved by molecular replacement using Phaser.

What is called Kd is the concentration at which binding is half-saturated. Higher therefore signals a looser complex. As a reminder, the koff is the rate constant with which the complex falls apart. Read a high koff as fast dissociation.

Numbering of substitutions follows the chain as printed.

Chain of hLTBP1-proTGFβ1 complex made by transfected cells (cell-based potency assay) (Q14766 347-1721, chain 1 of 2): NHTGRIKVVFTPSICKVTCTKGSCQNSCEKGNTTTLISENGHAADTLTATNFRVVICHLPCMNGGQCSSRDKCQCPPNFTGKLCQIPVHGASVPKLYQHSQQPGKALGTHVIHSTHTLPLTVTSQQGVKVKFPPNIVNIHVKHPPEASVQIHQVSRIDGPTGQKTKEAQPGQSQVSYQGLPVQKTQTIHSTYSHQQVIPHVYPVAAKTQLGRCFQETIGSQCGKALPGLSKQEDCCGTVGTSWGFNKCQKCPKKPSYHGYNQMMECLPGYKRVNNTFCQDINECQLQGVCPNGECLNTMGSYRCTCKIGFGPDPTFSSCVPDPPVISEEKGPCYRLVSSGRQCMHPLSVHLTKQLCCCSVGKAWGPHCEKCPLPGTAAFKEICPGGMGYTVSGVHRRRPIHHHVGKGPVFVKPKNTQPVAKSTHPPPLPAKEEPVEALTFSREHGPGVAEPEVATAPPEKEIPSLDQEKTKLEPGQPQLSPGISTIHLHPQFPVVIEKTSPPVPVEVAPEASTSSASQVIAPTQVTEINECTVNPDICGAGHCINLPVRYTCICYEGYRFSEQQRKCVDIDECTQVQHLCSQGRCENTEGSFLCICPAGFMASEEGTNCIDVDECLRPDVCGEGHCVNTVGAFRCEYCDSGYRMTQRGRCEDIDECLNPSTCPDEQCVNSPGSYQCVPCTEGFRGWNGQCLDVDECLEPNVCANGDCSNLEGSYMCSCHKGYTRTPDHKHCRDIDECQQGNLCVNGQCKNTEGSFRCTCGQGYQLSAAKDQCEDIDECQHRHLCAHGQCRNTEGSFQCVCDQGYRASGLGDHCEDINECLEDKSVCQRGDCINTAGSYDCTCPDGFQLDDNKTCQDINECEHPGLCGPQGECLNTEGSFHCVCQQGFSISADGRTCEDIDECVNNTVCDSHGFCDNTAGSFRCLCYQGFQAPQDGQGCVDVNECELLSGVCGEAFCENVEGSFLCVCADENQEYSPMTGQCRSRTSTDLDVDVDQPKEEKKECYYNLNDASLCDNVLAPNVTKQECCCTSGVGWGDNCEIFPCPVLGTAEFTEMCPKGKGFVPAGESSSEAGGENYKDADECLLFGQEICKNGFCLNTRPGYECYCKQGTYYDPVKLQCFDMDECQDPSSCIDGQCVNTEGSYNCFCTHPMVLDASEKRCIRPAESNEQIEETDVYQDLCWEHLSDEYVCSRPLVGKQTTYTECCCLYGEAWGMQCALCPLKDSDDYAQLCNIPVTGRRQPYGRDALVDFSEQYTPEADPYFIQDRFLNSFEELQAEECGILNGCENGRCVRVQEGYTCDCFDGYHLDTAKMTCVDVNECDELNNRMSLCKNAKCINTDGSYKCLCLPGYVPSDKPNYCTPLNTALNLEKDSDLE
Chain of hLTBP1-proTGFβ1 complex made by transfected cells (cell-based potency assay) (P01137 30-390, chain 2 of 2): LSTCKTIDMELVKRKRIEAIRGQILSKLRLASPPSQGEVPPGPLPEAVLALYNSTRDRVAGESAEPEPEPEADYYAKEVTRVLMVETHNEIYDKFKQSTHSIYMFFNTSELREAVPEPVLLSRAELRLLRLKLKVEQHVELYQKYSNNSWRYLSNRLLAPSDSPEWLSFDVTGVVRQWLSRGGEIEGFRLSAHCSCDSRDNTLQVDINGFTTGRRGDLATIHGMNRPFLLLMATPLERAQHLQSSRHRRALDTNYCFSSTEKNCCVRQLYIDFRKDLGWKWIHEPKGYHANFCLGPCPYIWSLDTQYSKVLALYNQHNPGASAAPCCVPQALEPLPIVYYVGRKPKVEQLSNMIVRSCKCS
T4 sequence (Q14766 873-1507 limits assumed, chain 1 of 2): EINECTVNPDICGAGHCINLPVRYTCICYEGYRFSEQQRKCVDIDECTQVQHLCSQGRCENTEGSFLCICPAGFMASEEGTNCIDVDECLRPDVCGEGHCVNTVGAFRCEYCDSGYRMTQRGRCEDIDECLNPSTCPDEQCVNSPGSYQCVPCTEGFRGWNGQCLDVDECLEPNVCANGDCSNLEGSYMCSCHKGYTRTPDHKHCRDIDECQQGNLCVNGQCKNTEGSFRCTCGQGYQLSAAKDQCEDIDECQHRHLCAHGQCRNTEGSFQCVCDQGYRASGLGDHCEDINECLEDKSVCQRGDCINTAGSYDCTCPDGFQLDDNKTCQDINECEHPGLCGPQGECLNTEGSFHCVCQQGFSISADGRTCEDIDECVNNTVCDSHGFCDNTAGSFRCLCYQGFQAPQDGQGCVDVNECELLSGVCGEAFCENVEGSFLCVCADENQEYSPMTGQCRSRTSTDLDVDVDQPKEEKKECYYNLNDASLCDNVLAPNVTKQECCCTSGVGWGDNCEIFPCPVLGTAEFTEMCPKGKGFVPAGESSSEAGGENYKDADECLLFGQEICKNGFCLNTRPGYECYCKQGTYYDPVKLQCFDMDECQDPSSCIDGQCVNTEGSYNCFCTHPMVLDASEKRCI
T4 sequence (chain, as listed by the source limits assumed, chain 2 of 2): as the sequence (P01137 30-390, chain 2 of 2) above
T3 sequence (Q86YC3 other isoform, or with tags, fused parts or gaps limits assumed, chain 1 of 2): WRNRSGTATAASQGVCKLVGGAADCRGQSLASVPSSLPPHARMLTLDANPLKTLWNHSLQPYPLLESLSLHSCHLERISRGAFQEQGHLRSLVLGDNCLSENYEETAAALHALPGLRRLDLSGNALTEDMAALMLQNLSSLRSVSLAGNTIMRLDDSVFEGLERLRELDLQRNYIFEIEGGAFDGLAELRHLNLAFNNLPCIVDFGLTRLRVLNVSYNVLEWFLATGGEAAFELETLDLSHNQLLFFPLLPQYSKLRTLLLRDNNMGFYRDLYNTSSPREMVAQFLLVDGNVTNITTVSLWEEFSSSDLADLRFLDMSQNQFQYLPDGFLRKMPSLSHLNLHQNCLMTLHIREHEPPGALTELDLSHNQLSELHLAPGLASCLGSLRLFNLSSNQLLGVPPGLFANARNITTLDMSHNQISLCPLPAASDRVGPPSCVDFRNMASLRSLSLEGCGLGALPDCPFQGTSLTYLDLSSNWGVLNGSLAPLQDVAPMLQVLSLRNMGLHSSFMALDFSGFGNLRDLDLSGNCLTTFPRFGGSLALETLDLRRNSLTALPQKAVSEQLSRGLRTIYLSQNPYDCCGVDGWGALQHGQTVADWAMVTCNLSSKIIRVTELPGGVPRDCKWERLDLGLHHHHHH
T3 sequence (P01137 30-390 limits assumed, chain 2 of 2): as the sequence (P01137 30-390, chain 2 of 2) above
T2 sequence (Q14392 20-627, chain 1 of 2): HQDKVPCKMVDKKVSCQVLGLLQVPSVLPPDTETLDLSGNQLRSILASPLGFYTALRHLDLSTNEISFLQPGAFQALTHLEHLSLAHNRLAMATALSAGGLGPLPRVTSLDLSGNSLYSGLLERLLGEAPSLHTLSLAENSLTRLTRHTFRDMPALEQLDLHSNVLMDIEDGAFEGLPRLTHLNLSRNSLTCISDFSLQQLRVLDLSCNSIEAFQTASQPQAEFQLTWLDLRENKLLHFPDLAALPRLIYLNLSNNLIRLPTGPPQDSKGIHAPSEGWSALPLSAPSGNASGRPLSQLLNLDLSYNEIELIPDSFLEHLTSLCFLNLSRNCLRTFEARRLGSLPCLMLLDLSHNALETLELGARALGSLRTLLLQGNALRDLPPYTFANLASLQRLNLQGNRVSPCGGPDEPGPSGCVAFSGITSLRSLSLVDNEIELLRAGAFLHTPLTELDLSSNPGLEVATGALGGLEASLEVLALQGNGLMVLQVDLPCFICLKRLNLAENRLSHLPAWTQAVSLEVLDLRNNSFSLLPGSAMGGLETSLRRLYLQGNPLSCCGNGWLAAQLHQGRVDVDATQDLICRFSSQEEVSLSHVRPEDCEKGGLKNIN
T2 sequence (P01137 30-390, chain 2 of 2): as the sequence (P01137 30-390, chain 2 of 2) above

B1: Ab4 (antibody, IgG4, V domains shown)
VH: EVQLVESGGGLVQPGGSLRLSCAASGFTFSSYSMNWVRQAPGKGLEWVSYISSSSSTIYYADSVKGRFTISRDNAKNSLYLQMNSLRAEDTAVYYCARGVLDYGDMLDPWGQGTLVTVSS
VL: DIQMTQSPSSLSASVGDRVTITCQASQDITNYLNWYQQKPGKAPKLLIYDASNLETGVPSRFSGSGSGTDFTFTISSLQPEDIATYYCQQADNHPPWTFGGGTKVEIK
notes: also called parental lead antibody of Ab6
Take B1: the Kd in [1] came out at 5.5 nM; in assay [2], 2.5 nM; in assay [3] it was 2.1 nM; in [4] it was 4.6 nM. Besides, in assay [5], the binding result is reported as “binds”. Further, the “IC50, reporter cell assay of TGFβ1 activation” value (shortened to “IC50, reporter cell assay”) in assay [6] is 0.822 nM; in [7], 3.5 nM; in assay [8], 5.22 nM; in assay [9], 5.65 nM.

B2: Ab6 Fab (Fab, V domains shown)
VH: B1 VH with A23T, Y32F, N35D, S53P, S55A, S56D, S78T, D108M
VL: B1 VL
notes: Fab of Ab6
Turning to B2, the binding result in assay [10] was “binds”.

B3: Ab2 (antibody, human IgG4 S228P, kappa, V domains shown)
VH: EVQLLESGGGLVQPGGSLRLSCAASGFTFADYAMTWVRQAPGKGLEWVSAISGSGAATYFADSVKGRFTISRDNSKNTLYLQMNSLRAEDTAVYYCARVSSGHWDFDYWGQGTLVTVSS
VL: DIQLTQSPSSLSASVGDRVTITCRASQSISSYLNWYQQKPGKAPKLLIYAASNLQSGVPSRFSGSGSGTDFTLTISSLQPEDFATYYCQQTYTVPLTFGGGTKVEIKR
For B3, the results for the koff in assay [11] and in assay [12] were 0.00561 s⁻¹ and 0.00278 s⁻¹, respectively. Further, the Kd in assay [1] was 0.171 nM; in assay [2] it was 1.4 nM; in assay [3], 3.2 nM; in assay [4] it was 0.36 nM; in assay [13] it was 0.148 nM; in assay [14], 0.778 nM. For the same molecule, the results for the Kd in assay [15] and in assay [16] were 0.508 nM and 0.165 nM, respectively. For the same molecule, the “IC50, reporter cell assay” value was 0.776 nM in assay [6], 1.38 nM in assay [7], 3.39 nM in [8] and 0.867 nM in assay [9].

B4: Ab35 (antibody, IgG4, V domains shown)
VH: B3 VH with A30R, D31N, T35S, A50S, A56G, F60Y, G102Y, H103L
VL: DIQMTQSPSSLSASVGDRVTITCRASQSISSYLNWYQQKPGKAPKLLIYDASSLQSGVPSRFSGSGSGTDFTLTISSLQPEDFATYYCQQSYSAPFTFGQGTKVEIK
B4: the Kd came to 0.26 nM in assay [1]; 1.1 nM in assay [2]; 1.1 nM in assay [3]; 0.27 nM in assay [4]; 0.169 nM in assay [13]; 7.37 nM in assay [14]. Also, the Kd is 0.545 nM in [15] and 0.159 nM in assay [16]. The “IC50, reporter cell assay” value in assay [6] was found to be 3.71 nM; in assay [7] it was 5.37 nM; in [8], 6.25 nM; in assay [9] it was 2.71 nM.

B5: Ab2 Fab (Fab, V domains shown)
VH: B3 VH
VL: DIQLTQSPSSLSASVGDRVTITCRASQSISSYLNWYQQKPGKAPKLLIYAASNLQSGVPSRFSGSGSGTDFTLTISSLQPEDFATYYCQQTYTVPLTFGGGTKVEIK
notes: Fab of Ab2; C-terminally 6x-His tagged in the crystallography work
Take B5: the binding result in [17] is recorded as “binds”.
